Measured values: the nanobody polyreactivity screen of Harvey et al. (2022)

Assay: yeast display, Sf9 membrane polyspecificity reagent, FACS + sequencing; frameworks hold sequencing errors
How it was run: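 In a synthetic yeast display library (Saccharomyces cerevisiae BJ5465), nanobody expression was induced with galactose for 36–48 hours. FACS gates were set low and high (top ~1%) using anti-HA fluorescence for expression and streptavidin fluorescence for binding of the Sf9 membrane reagent. Each polyreactivity label is drawn from the gate of origin.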

| Sequence | polyreactivity (PSR sort gate) |
| --- | --- |
| QVQLVESGGGLVQAGGSLRLSCAASGRTFPGNAMGGDKQAPGKERELVASINGRTTRTYYADSVKGRFTISRDNAKNTVYLQMTSLKPEDTAVYYCAADPPGYVYGKRYYWGQGTQVTVSS | high polyreactivity |
| QVQLVESGGGLVQAGGSLRLSCAASGSNFSFYAMGWYRQAPGKERELVAAISWSGGTTYYADSVKGRFTISRDNAKNTVYLQMNSLKPEDTAVYYCAASEYDGYGGYYWGQGSQVTVSS | low polyreactivity |
| QDQLVESGGGLVHAGGSLRLSCAASGLTFGRNAMGWYRQAPGKERELVAAISRSGGRTSYADSVKGRFTISRDNAKYTVYLQMHSLKPEDTAVYYCAARSDVFTHDYWGQGTQVTVSS | high polyreactivity |
| QVQLVESGGGLVQAGGSLRLSCAASGRILYVNTMGWYRQAPGKERELVAGITSRVGSTYYADSVKGRFTISRDNAKNTVYLQMNSLKPEDTAVYYCNARDKFYVPSLYAYDYWGQGTQVTVSS | low polyreactivity |
| QVQLVESGGGLVQAGGSLRLSCAASGSIFYANAMGWYRQAPGKERELVAAISRSGGRTYYADSVKGRFTISRDNAKNTVYLQMNSLKPEDTAVYYCNAVYVSYTYQQTRPRYYYWGQGTQVTVSS | high polyreactivity |
| QVQLVESGGGLVQAGGSLRLSCAASGSTFYTNAMGWYRQAPGKERELVAAITSSVGSTHYADSVKGRFTISRDNAKNTVYIQMNSLKPEDTAVYYCAATFGYGRYGYWGQGTQVTVSS | low polyreactivity |
| QVQLVESAGGLVQAVGSHRLSSATSGSIFSGNSMGWYRQAPGTQSELVADISQNGGRTYYADSVKGRFTISRDNAKYTVYLQINSLKPEDTGVYYCAARGWYRYGSVYYIGDYWGQGTQGTVSS | high polyreactivity |
| QVQLVESGGGLVQAGGSLRLSCAASGGTFYRYAMGWYRQAPGKERELVAAITSGSSTYYADSVKGRFTISRDNAKNTVYLQMNSLKPEDTAVYYCAAARYSRLSRTRPGKYGYWGQGTQVTVSS | low polyreactivity |
| QVQLVESGGGLVQAGGSLRLSCAASGSTLVKYAMGWYRQAPGKERELVARITLNGGRTYYADSVKGRFTISRDNAKNTVYLQMNSLKPEDTAVYYCAKSLPHSTSRDYWGQGTQVTVSS | low polyreactivity |
| QVQLVESGGGLLQAGGSLRLSCAASGSMFGLYAMGWYRQAPGKERELVAAISKSGGSTYYADSVKGRFTISRDNAKNTVYLQMNSLKPEDTAVYFCAARQYPRAGFDYWGQGTQVTVSS | high polyreactivity |
| QVQRVESAGGLVQAGGSLRLSCAASGSTFLYNAMGWYRQAPGKERELVAAISWSGGSTYYADSVKGRFTISRDNAKNTVYLQMNSLKPEDTAVYYCAKPRSWGYNWGQGTQVTVSS | high polyreactivity |
| QVQLVESGGGLVQAGGSLRLSCAASGSIIPYNAMGWYRQAPGKERYLVATISSGGSTNYADSVKGRFTISRDNAKNTVYLQMNSLKPEDTAVYYCAADVIVFYYAPNYWGDIEYGYWGQGTQVTVSS | low polyreactivity |
| QVQLVESGGGLVQAGGSLRLSCAASGFIFSRYAMGCYRQSPGKERELVATIRRSGRTNYADSVKGRFTISRDNAKNTFYLQMNSLKPEDTAVYYCAKPGQWHRYHYGSWGQGTQVTVSS | low polyreactivity |
| QVQLVESGGGLVQAGGSLRLSCAASGRISYYYMGWYRQAPGKERELVAAISWNGGRTYYADSVKGRFTISRDNAKNTVYLQMNSLKPEDTAVYYCAAYTYSFRANHDYWGQGTQVTVSS | high polyreactivity |
| QVQRVESGGGLVQAGGSLRLSCAASGIIFDRYAMGWYRPAPGKERELVAAISSSGGSTYYADSVKGRFTISRDNAKNTVYLQMISLKPEATAVYYCNARHRQWARGYWGQGTQVTVSS | high polyreactivity |
| QVQLVESGGGLVQAGGSLRLSCAASGITFTRYAMGWYRQAPGKEREFVAAIRRSGGNTYYADSVKGRFTISRDNAKNNVYLQRNSLKPEESAVYYCPASFRKTSPTRLVDYWGLGTQVTVSS | low polyreactivity |

| Sequence | polyreactivity (PSR sort gate) |
| --- | --- |
| QDQLVESGGGLVQAGGSLRLSCAASGRIFSKYAKGWYRQAPGKERELVAAITTGGGSTSYADSVKGRFTISRDNAKITVYLQMNSLKPEDTAVYYCAADRLSYGFGMYYWGQGTQVTVSS | low polyreactivity |
| QVQLVESGGGLVQAGGSLRLSCAASGFIIKFCAMGLYRQAPGKERELVATITFSSGTTYYADSVKGRFTISRDNAKYTVYLQMNSLKPEDTAVYYCAASTLPAWPYDGPAGPRYDYWGQGTQVTVSS | low polyreactivity |
| QVQLVESGGGLVQAGGSLRLSCAASGRIFTHNAMGWYRQAPGKERELVAAITIGGRTNYADSVKGRFTISRDNAKNTVYLQMNSLKPEDTAVYYCARRYGTWNAYDYWGQGTQVTVSS | low polyreactivity |
| QVQLVESGGGLVQAGGSLRLSCAASGSTFTYNAMGWYRQAPGKERELVASISSGTTTYYADSVKGRFTISRDNAKNTVYLQMNCLKPEDTAVYYCAVDSWSRVQGWLAHYYDYWGQGTQVTVSS | low polyreactivity |
| QVQLVESGGGLVQAGGSLRLSCAASGSIFAFNAMGWYRQAPGKERELVAAITRSGGRTFYADSVKGRFTISRDNAKNTVYLQMNSLKPEDTAVYYCAASEWRFSSYGGVKYYVEYDYWGQGTQVTVSS | high polyreactivity |
| QVQLEESGGGLVQAGGSLRLSCAASGYIFDYNAMGWYRQAPGKERELVAVISRGGRTYYADSVKGRFTISRDNAKNTVYLQMNILKPEDTAVYYCAADRQSYPYDYWGQGTQVTVSS | high polyreactivity |
| QVQLVESGGGLVQAGGSLRLSCAASGRTSYVYAMGWYRQAPGKERELVAAITSSGGSTYYADSVKGRFTISRDNAKNTVYLQMNSLKPEDTAVYYCAAETYPVWGVAFYYWGQGTQVTVSS | high polyreactivity |
| QVQLVETGGGLVQAGGSLRLSCAASGRTFTGNAMGWYRQEPGKERELVADISSDGSTNYADSVKGRFTISRDNAKNTVYLQMNSLKPEDTAVYYCAADPFWTYYIDYDYWGQGTQVTVSS | low polyreactivity |
| QVQLVESGGGLVQAGGSLRLSCAASGRIFSRYAMGLYRQAPGKERELVAAISWSGGSTYYADSVKGRFTISRDNAKNTVYLQMNSLNTEDTAVYYCAPPIKGSDSKYGYWGQCTQVTVSS | high polyreactivity |
| QVQLVESGGALVQAGGSLRLSCAASGYTFSKNTMGWYRQAPGKEREFVAAINWSGGSTYYADSVKGRFTISRDNEKNTVYLQMNSLKPEDTAVYYCAARRGGRRGYDYWGQGTQVTVSS | high polyreactivity |
| QVQLLETGGGLVQAGGSLRLSCAPSGSTFYYYAMGWYRQAPGKEWELVAAISWSGVSTYYADSVKGRFTISRDNAKTTVYLQMNSLKPEDNAVYYCNADSYTLYGRYDYWGQGTQVTVSS | low polyreactivity |
| QVQLVESVGGLDQAGGSLRLSCAASGSIFVGYAMGWYRQAPGKERELVAAITRSGVSTYYADSVKGRFTISRDNAKNTVYLQMNSLKPEDTAVYYCAADPTYRYWRVPWYEYDYWGQGTQVTVSS | low polyreactivity |
| QVQIEESGGGLVQAGGSLRLSCAASGLIFGSYVMGWYRQAPGKERELVAAITVRTGTTYYADSVKGRFTISRDNAKNTVYLKMNSLKPEDTAVYYCALRYRPKYGYWGQGTQVTVSS | high polyreactivity |
| QVQLVESGGGLVQAGGSLRLSCAASGRTFGEYAMGWYRQAPGKERELVAAITGGDSTNYADSVKGRFTISRDNAKNTVYFQMNSLKPEDTAVYYCAAYGVKVLWTLTTYDYWGQGTQVTVSS | low polyreactivity |
| QGQLVDSGGGLVQAGGSLRLSCAASGSIVRPNAMGWYRPAPGKEREFVAAITSSSGPTYYADSVKGRFTISRDNAKNTVYLQMNSLKPEDTAVYYCAAKYTSRSYKYDYWGHGTQVTVSS | high polyreactivity |
